Square brackets hold non-standard residues; d marks the D form. Primed or numbered codes have the meaning given here. * marks the point of attachment. 10Ca = carbamate linkage conjugating the peptide-PEG to paclitaxel at C10; PEG(13) = PEG13 linker; Piv = CC(C)(C)C(=O)*; PXL = paclitaxel
Biological target: Human Akt kinase (Upstate #14-276) (human), P31749
Assay: cell-based or functional assay

Chain of Human Akt kinase (Upstate #14-276) (human), P31749 (P31749 whole entry): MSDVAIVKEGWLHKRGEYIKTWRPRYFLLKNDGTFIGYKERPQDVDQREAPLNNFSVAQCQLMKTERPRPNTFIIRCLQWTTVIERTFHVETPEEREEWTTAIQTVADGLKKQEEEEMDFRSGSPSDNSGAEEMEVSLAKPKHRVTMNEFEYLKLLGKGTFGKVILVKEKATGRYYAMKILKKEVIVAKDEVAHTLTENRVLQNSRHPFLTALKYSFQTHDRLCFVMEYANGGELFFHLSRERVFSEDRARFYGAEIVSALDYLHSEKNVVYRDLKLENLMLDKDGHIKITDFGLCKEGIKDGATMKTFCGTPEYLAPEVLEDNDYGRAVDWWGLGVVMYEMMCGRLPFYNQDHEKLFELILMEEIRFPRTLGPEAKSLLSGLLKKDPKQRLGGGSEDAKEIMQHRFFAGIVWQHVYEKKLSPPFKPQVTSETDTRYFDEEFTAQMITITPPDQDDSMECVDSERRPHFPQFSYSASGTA

Ave. Akt Kinase Act. (% of parent peptide activity): 0
B1: Pv-GRPRTSsFAEG-PEG(13)-10Ca-PXL (peptide)
peptide: Piv-GRPRTS[dS]FAEG-{PEG(13)-10Ca-PXL}

From US20050187147A1
